According to IntAct's records for PubMed 17997972:

B1: Nuclear distribution protein nudE-like 1 (Homo sapiens), Q9GZM8 (parent)
chain: MDGEDIPDFSSLKEETAYWKELSLKYKQSFQEARDELVEFQEGSRELEAELEAQLVQAEQRNRDLQADNQRLKYEVEALKEKLEHQYAQSYKQVSVLEDDLSQTRAIKEQLHKYVRELEQANDDLERAKRATIVSLEDFEQRLNQAIERNAFLESELDEKESLLVSVQRLKDEARDLRQELAVRERQQEVTRKSAPSSPTLDCEKMDSAVQASLSLPATPVGKGTENTFPSPKAIPNGFGTSPLTPSARISALNIVGDLLRKVGALESKLAACRNFAKDQASRKSYISGNVNCGVLNGNGTKFSRSGHTSFFDKGAVNGFDPAPPPPGLGSSRPSSAPGMLPLSV
partner: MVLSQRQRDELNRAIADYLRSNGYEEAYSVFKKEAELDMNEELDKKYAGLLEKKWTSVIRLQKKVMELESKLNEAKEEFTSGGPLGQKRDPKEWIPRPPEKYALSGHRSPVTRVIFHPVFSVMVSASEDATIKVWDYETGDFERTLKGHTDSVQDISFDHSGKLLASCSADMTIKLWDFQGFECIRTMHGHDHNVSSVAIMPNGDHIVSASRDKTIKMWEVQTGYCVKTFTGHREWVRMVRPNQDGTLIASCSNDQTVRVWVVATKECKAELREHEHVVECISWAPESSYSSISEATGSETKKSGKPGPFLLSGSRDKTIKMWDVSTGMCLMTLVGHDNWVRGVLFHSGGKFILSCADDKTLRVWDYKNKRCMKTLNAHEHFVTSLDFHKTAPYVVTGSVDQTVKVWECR

Variants of: B1
Details: with lis1_mouse Pafah1b1, P63005

effect of a mutation on the interaction	Variant
disrupting interaction	R130A
disrupting interaction	E119A
